According to the supplement of paper PMC12764529:
± gives the half width of the 95% confidence interval.

Columns and labels:
[1] = folding stability dG unfold from trypsin proteolysis; higher = more stable
Summary of the method: (§1)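 K50 was inferred by Bayesian fitting of sequencing counts obtained after protease digestion of designed mini-proteins. Unfolding free energy was derived by comparison with a sequence-predicted unfolded-state K50 and a shared folded-state K50, for each protease or both combined. The mini-proteins were under 80 residues, had no cysteine, were carried in a PA-tagged cDNA display construct, and were kept only if AlphaFold2 dimer inter-PAE exceeded 15.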

[2] = folding stability dG unfold (combined trypsin and chymotrypsin); higher = more stable
Summary of the method: as §1

[3] = folding stability dG unfold from chymotrypsin proteolysis; higher = more stable
Summary of the method: as §1

Row | Sequence | folding stability dG unfold [1] | folding stability dG unfold [2] | folding stability dG unfold [3]
1 | SAGGSAGGSAGGSMKIVEVELIEYDEETKEFVYVFRVRLEDGSERLIVITPDGEMRVVPSAGGSAGGSAGGS [r4_35_TrROS_Hall] | 2.61 ± 0.064 kcal/mol | 3.26 ± 0.055 kcal/mol | 3.481 ± 0.031 kcal/mol
2 | SAGKEVIVITVEELEKLLKALKPGEKVKIVVINKDGKKVTFTAEVKDGKVEIKEAEKDIKPGDKIFIEKSAG [r5_85_TrROS_Hall] | 1.85 ± 0.17 kcal/mol | 3.09 ± 0.46 kcal/mol | 3.49 ± 0.28 kcal/mol
3 | SAGGSAGGSAMTVSIPPEVITSVEYDPSTNKVTITPSDGSVKTYDVESPEEVFKANNIGPESAGGSAGGSAG [r3_34_JUSTAS] | 0.887 ± 0.044 kcal/mol | 0.753 ± 0.095 kcal/mol | 0.648 ± 0.11 kcal/mol
4 | SAGGSAGGSAGGAPEKEVTVRVRITVFRDGKPVEEIELEPGQTLTFPPGARVVIEVELLPSAGGSAGGSAGG [r7_141_TrROS_Hall] | 3 ± 0.13 kcal/mol | 3.39 ± 0.17 kcal/mol | 3.51 ± 0.12 kcal/mol
5 | SAGGLKIDEFERSPNQGRYYVTIKIYHPDNGKPWDIEVPFNPDNGRWSAEEIAKTIAKKFKLPPGFTISAGG [r13_362_TrROS] | 1.814 ± 0.014 kcal/mol | 2.05 ± 0.062 kcal/mol | 2.3 ± 0.08 kcal/mol
6 | MKPIPAEEIRDLAQKLGLPLPPGQIQIKVRHNNKKKTFPIPAGDPITIDDIVENMQQQNPNIKDIEIVIHPS [r1_135_TrROS] | -0.754 ± 0.53 kcal/mol | < -1 kcal/mol | -0.389 ± 0.28 kcal/mol
7 | SAGGSAGGPKKIKITNIEYPNGYWRVKISLPNGKEVEYPMDSPDDALDWAEDDGIKEVEIEKYNSAGGSAGG [r6_601_TrROS] | -0.429 ± 0.49 kcal/mol | 0.159 ± 0.18 kcal/mol | 0.358 ± 0.28 kcal/mol
8 | SAGKPKIIEEKTITVPPGATLTIEFPPEVKRIEIINLDTGKTETIEIKPGEKLTFTFPPGSTVRVRVLSAGG [r19_118_TrROS_Hall] | 2.38 ± 0.029 kcal/mol | 3.65 ± 0.09 kcal/mol | 4.06 ± 0.046 kcal/mol
9 | SAGGSAMTITEDGTLTLEIKVPEDAPEATVKVTVLTDGKTLGEADPATGKVTLKVPPDVEVKVEVASAGGSA [r15_180_TrMRF] | 1.09 ± 0.074 kcal/mol | 1.69 ± 0.13 kcal/mol | 1.87 ± 0.045 kcal/mol
10 | SAGGSAGGSAGKETITITLVVTDENGEKYLIRVEAKIDPKTNKITITKIEIIRLDDLKKLSAGGSAGGSAGG [r11_777_TrROS_Hall] | 1.12 ± 0.093 kcal/mol | 1.75 ± 0.41 kcal/mol | 1.72 ± 0.058 kcal/mol
11 | SAGGSAGGSATVTVTETNEDGEETTTEVEVFEVKPPPAPVLKVEAVIDPETNELVDVKVELFASAGGSAGGS [r12_539_TrROS_Hall] | 1.36 ± 0.1 kcal/mol | 0.784 ± 0.14 kcal/mol | 0.201 ± 0.14 kcal/mol
12 | SFSISTETKVVPQDGRLLIEYEFTVPNAPPGDTAALTLSVSHPSGASTSTSQTADPAGTYTAKFVVDIPLTS [r1_161_JUSTAS] | 0.437 ± 0.061 kcal/mol | 0.527 ± 0.053 kcal/mol | 0.471 ± 0.09 kcal/mol
13 | SAGMEPVSIKITKIEKTPENKDYVIVTVTPPDGVPTEIKVPIEFYKSGKLKNATAEELVKLFPEYKLESAGG [r19_74_JUSTAS] | 1.13 ± 0.065 kcal/mol | 2.28 ± 0.12 kcal/mol | 2.68 ± 0.045 kcal/mol
14 | SAGGSMVVTETLVETLTETLTFPDGTPVTVTVPVTVTVEVYLPEPPAPPPLPFSRLAEELGDPALVSAGGSA [r2_340_JUSTAS] | -0.838 ± 0.26 kcal/mol | -0.623 ± 0.15 kcal/mol | -0.661 ± 0.43 kcal/mol
15 | SANKNFYIIQIKWEIDGPDGRTLSFMIIVPRDDPDEFLKEAKDFIAEEFGYPIKKIEVDIHRIPPEDFPSAG [r14_104_TrROS] | 2.76 ± 0.14 kcal/mol | 3.01 ± 0.17 kcal/mol | 3.16 ± 0.07 kcal/mol
16 | SAGGSFEPKREIEITLPNGREIEVWRYPGEGQMWVKLRFPNNGQKVEIPVKSPEDAEDSLKKFLKNSAGGSA [r2_70_TrROS] | -0.28 ± 0.29 kcal/mol | -0.169 ± 0.25 kcal/mol | -0.334 ± 0.35 kcal/mol

Row | Sequence | folding stability dG unfold [1] | folding stability dG unfold [2] | folding stability dG unfold [3]
17 | SAGGSAGGSAMTIKVEVTVKVKVKLENGETKEKEVKVTVEIELPPLTKEELEKNKELLKKLLSAGGSAGGSA [r18_114_TrROS_Hall] | 2.42 ± 0.14 kcal/mol | 2.42 ± 0.16 kcal/mol | 2.53 ± 0.08 kcal/mol
18 | SAGGSAGGKIKLDGKEIVIVMSKEEKEKIAKELKEKFPNVKIKVVEGMSEEEAAKKADLVIVFDSAGGSAGG [r6_679_TrROS_Hall] | -0.142 ± 0.18 kcal/mol | -0.269 ± 0.39 kcal/mol | 0.0544 ± 0.23 kcal/mol
19 | SAGGMTLEELAARVGRVEVEEAEDGGRVLRVTIPLAGPGGPPAPRTFLIEIPPDRPDLTIAEVLARLGSAGG [r13_319_TrMRF] | 1.38 ± 0.064 kcal/mol | 1.66 ± 0.07 kcal/mol | 1.84 ± 0.057 kcal/mol
20 | SAGGSAGGMFYVVRLEGPDGPLRTLVRPAESLEEARAFAEALAPEGARVTVEPLEEEEAERLLGSAGGSAGG [r6_267_TrMRF] | 1.07 ± 0.057 kcal/mol | 2.13 ± 0.065 kcal/mol | 2.54 ± 0.053 kcal/mol
21 | SPLKPNDIRPIKFTSPIRNPDNGRPFRIKVEIWVMPEDPMVIIKDEIEPPNGRTREHTFWIPPGQKIEIPSA [r9_88_TrROS] | 0.261 ± 0.13 kcal/mol | 0.295 ± 0.3 kcal/mol | 0.358 ± 0.33 kcal/mol
22 | SAGGSAGGEPELNVLETLEETVDPNTGLTYTTELVQLPDGTLVTVKTLYDKATGTWTVLETTPESAGGSAGG [r6_262_JUSTAS] | 2.4 ± 0.18 kcal/mol | 2.18 ± 0.13 kcal/mol | 2.07 ± 0.079 kcal/mol
23 | SMPVTITRDFDIPLATLSVEEVKAAIEEALKAEGLNVVEPKLDEKLVKELEEAPPSSTLPVKVTVLVEPASA [r9_1163_JUSTAS] | 0.35 ± 0.074 kcal/mol | 0.62 ± 0.15 kcal/mol | 0.715 ± 0.049 kcal/mol
24 | SAGGSAGGSDRYLAVVFVRRADDPTPEVRTFTGIRTLADVERAVADALPADVAEVRIVVFPVRSAGGSAGGS [r20_29_TrMRF] | 1.59 ± 0.055 kcal/mol | 1.67 ± 0.12 kcal/mol | 1.82 ± 0.12 kcal/mol
25 | SAGGSAGGSAGGMVTVETAPAPEGTERVIRVTFLEVNPEDGTIVRPATLTFVVPPGDPLSAGGSAGGSAGGS [r10_86_TrMRF] | 0.397 ± 0.066 kcal/mol | 0.686 ± 0.062 kcal/mol | 0.876 ± 0.083 kcal/mol
26 | SAGGSAGGSAVTIYIPWDEILEELGLPPEDVEYKPMKNGSYSFKYKNGKPVTIIMPPEDFKSAGGSAGGSAG [r3_477_TrROS] | -0.12 ± 0.29 kcal/mol | 0.663 ± 0.19 kcal/mol | 1.07 ± 0.2 kcal/mol
27 | SAGGSAGMVLVRTPDGEVLLLPFTSPEEAEEALERLTGGRLVSVRLEGTPGDRLLLVAEVERPPGGSAGGSA [r15_447_TrMRF] | 1.88 ± 0.045 kcal/mol | 2.06 ± 0.11 kcal/mol | 2.16 ± 0.059 kcal/mol
28 | SAGGSAKILEEALEALKKAKPGEEVEIEIEIEVNGKKYRIKVKVTYDEETGKITIEIVEIEELPEESAGGSA [r15_724_TrROS_Hall] | 3.23 ± 0.14 kcal/mol | 3.8 ± 0.14 kcal/mol | 4.11 ± 0.14 kcal/mol
29 | SAGGSAGGSKITSIEEKDGFVRITIEVDGKTETKTIPKENLPPNITFPPGAKVKIEKVSKEDLSAGGSAGGS [r12_1005_TrROS_Hall] | 0.449 ± 0.04 kcal/mol | 1.32 ± 0.073 kcal/mol | 1.74 ± 0.043 kcal/mol
30 | SMVVIEVEPNPETNSLTAKVYLPKDGKKVVEIERSPDGTVKVTVYYKDGSKEEFTFPEDIPIEEAIKKAISA [r9_346_TrMRF] | 1.16 ± 0.037 kcal/mol | 1.15 ± 0.095 kcal/mol | 1.1 ± 0.13 kcal/mol
31 | SAGGSAGGSAVVALTPDGALAVWFPEKGVVVVYNPATGTYTVLTVDADNTVTLEDVPPNTDVFSAGGSAGGS [r12_997_TrMRF] | 1.46 ± 0.032 kcal/mol | 1.34 ± 0.057 kcal/mol | 1.13 ± 0.07 kcal/mol
